B1: TPR t1 (parent)
chain: GACCAAUCUGCCCUCAGAGCUCGAGAACAUCUUCGGAUGCAGAGGAGGCAGGCUUCGGUGGCGCGAUAGCGCCAACGUCCUCAACCUCCAAUGCAUCCCACCACAUGAUGAUGCCUGAAGAGCCUUGGUUUUUUG

Variants of: B1
Assay: polymerase ribozyme fitness, log enrichment relative to wild type (log ratio); higher = more active; in vitro selection for triplet polymerase activity
Outline: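 Streptavidin-bead capture of gel-excised extended constructs, followed by RT-PCR, closed a single triplicate in vitro selection round. That round began by annealing PCR-built, transcribed mutant libraries of each subunit of a heterodimeric triplet polymerase ribozyme with a biotinylated primer, the partner subunit and triplets, then incubating them frozen at −7 °C. After Illumina sequencing of inputs and outputs, genotypes needed ≥10 input reads and ≥1 read per output. Fitness is the base-2 logarithm of genotype enrichment over wild-type enrichment, using inverse-variance-weighted replicate averages.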

Variant | polymerase ribozyme fitness (log ratio)
G60C C82G | -0.49
G60C C82A | -0.574
G60A A118U U126A | -2.3
G60C G110U | -1.71
G60U C79U | 0.386
G60U C82U | -0.383
G61A A84C | 0.126
G60U C104U | 0.494
U59C G110A | -1.31
G60U C89A A118G | -1.39
G60C C102U | -2.87
G60C U96C C104U G117A | -2.83
G60A G63U | -3.96
G60U A84U C102A U134G | -2.03
G60C A74C | -4.67
G60U A121U | 1.63
U59C C64U U81A | -1.8
U59G C89A A121G | 0.508
G60U A105C | -1.6
G60A C123G | 1.63
G60U C85A | -0.541

Variant | polymerase ribozyme fitness (log ratio)
G60A C64U | -2.43
G60U U92A | -3.34
U59G A83C C97U | -0.481
G61A C70U G120U C123G | -0.0638
U59G G71A | -3.25
U59C G107C U112A U133G | -6.34
G60C A111U G128U U133A | -6.08
G60A A83C | -0.195
G60A A100U U129A | -2
G60A A90C | -0.936
G60A U125A | -0.369
G60A G113C G135U | -5.16
G60A U78A U92C | -1.57
G60A A91U | -1.09
G60U C97A C104U U126G | -5.83
G61A | 0.0725
G60C C123A | -0.064
G60U G61U C104A | -5.16
G60A C89A U116G | -4.84
G60A U92A C104U U133A | -2.74
G60U A91G | -1.56

Variant | polymerase ribozyme fitness (log ratio)
G61A A111U | -2.88
G60A A108G G117A | -3.74
G61A C62U C73A | -2.37
G60U C124G | 1.38
G60A U116G | -2.22
G60A C62U C79G U106G | -5.51
U59G U92A | -3.4
G60A C89U | -0.18
G60U U125G | -0.584
U59G C79A A103G | -5.54
U59C G60C | -0.854
G60A C88U | -0.511
G60A C88G | -1.54
U59G U81G U96G | -3.9
U59C C114A U130A | -2.23
G60U A90U | -1.1
G60C A121C U130A | 0.0713
G60U U87A C123G | 1.56
G60C A121G | 1.05
G60A G135A | -0.733
G60A G135U | -0.711

Variant | polymerase ribozyme fitness (log ratio)
G60C G120U | 0.528
G61A C64A | -6.82
G61A C73G | -1.15
G60U A83U A108C C114G G117C | -5.39
G60A A84U U87A G113U G122A | -5.92
G60C U130A U133A | -1.59
G60C A95C | -1.25
G60C G69A | -4.01
U59C G71A G127C U132C | -2.94
G60U G120A | 1.38
G60U G120U | 0.205
G60A C64G G69U U132A | -0.296
G60U C80G | -4.54
G60C G61A U96A | -2.15
U59C C97A U109C C114G G122U | -6.59
G60U C80A U106A | -3.14
G61A C82U C115A | 0.0919
G60U U87A U126C | -0.499
G60U A90G C123A U125A G135A | 1.61
G61A A91C | -0.737
G61A C62U | -1.86

Reference: the RNAGym collection of RNA variant scans (doi:10.1073/pnas.2313332121)
